{
  "source": "the RNAGym collection of RNA variant scans (doi:10.7554/elife.80360)",
  "parents": {"B1": {"name": "HDV Ribozyme (parent)", "chain": "GGCCGGCAUGGUCCCAGCCUCCUCGCUGGCGCCGGCUGGGCAACAUUCCGAGGGGACCGUCCCCUCGGUAAUGGCGAAUGGGACCCA"}},
  "data": [
    {"variants_of": "B1", "assay": "self-cleavage, relative activity (ratio to wild type); higher = more cleavage; co-transcriptional", "values": [
      {"variant": "GGCCGGCAUGGUCCCAGCCUCCUCGCUGGCGCUGGCUGGGCAACAUUCCGAGGGGACCGACCCCUCGGUAAUGGCGAAUGGGACCCA", "note": "[C33U U60A]", "self-cleavage": 0.696},
      {"variant": "GGCCGGCAUGGUCCCAGCCUCCUCGCUGGCGCUGGCUGGGCAACAUUCCGAGGGGACCGGCCCCUCGGUAAUGGCGAAUGGGACCCA", "note": "[C33U U60G]", "self-cleavage": 0.935},
      {"variant": "GGCCGGCAUGGUCCCAGCCUCCUCGCUGGCGCUGGCUGGACAACAUUCCGAGGGGACCGUCCCCUCGGUAAUGGCGAAUGGGACCCA", "note": "[C33U G40A]", "self-cleavage": 1.06},
      {"variant": "GGCCGGCAUGGUCCCAGCCUCCUCGCUGGCGCUGGCUGGCCAACAUUCCGAGGGGACCGUCCCCUCGGUAAUGGCGAAUGGGACCCA", "note": "[C33U G40C]", "self-cleavage": 0.286},
      {"variant": "GGCCGGCAUGGUCCCAGCCUCCUCGCUGGCGCUGGCAGGGCAACAUUCCGAGGGGACCGUCCCCUCGGUAAUGGCGAAUGGGACCCA", "note": "[C33U U37A]", "self-cleavage": 0.17},
      {"variant": "GGCCGGCAUGGUCCCAGCCUCCUCGCUGGCGCUGGCGGGGCAACAUUCCGAGGGGACCGUCCCCUCGGUAAUGGCGAAUGGGACCCA", "note": "[C33U U37G]", "self-cleavage": 0.0462},
      {"variant": "GGCCGGCAUGGUCCCAGCCUCCUCGCUGGCGCUGGCUGGGCAACAUUCCGUGGGGACCGUCCCCUCGGUAAUGGCGAAUGGGACCCA", "note": "[C33U A51U]", "self-cleavage": 0.848},
      {"variant": "GGCCGGCAUGGUCCCAGCCUCCUCGCUGGCGCUGGCUGGGCAACAUUCCGCGGGGACCGUCCCCUCGGUAAUGGCGAAUGGGACCCA", "note": "[C33U A51C]", "self-cleavage": 1.3},
      {"variant": "GGCCGGCAUGGUCCCAGCCUCCUCGCUGGCGCUGGCUGGGCAACAUUUCGAGGGGACCGUCCCCUCGGUAAUGGCGAAUGGGACCCA", "note": "[C33U C48U]", "self-cleavage": 0.847},
      {"variant": "GGCCGGCAUGGUCCCAGCCUCCUCGCUGGCGCUGGCUGGGCAACAUUGCGAGGGGACCGUCCCCUCGGUAAUGGCGAAUGGGACCCA", "note": "[C33U C48G]", "self-cleavage": 1.05},
      {"variant": "GGCCGGCAUGGUCCCAGCCUCCUCGCUGGCGCUGGCUGGGCAACAUUCCGAGGGGACCGUCCCCUCUGUAAUGGCGAAUGGGACCCA", "note": "[C33U G67U]", "self-cleavage": 0.816},
      {"variant": "GGCCGGCAUGGUCCCAGCCUCCUCGCUGGCGCUGGCUGGGCAACAUUCCGAGGGGACCGUCCCCUCCGUAAUGGCGAAUGGGACCCA", "note": "[C33U G67C]", "self-cleavage": 0.771},
      {"variant": "GGCCGGCAUGGUCCCAGCCUCCUCGCUGGCGCUGGCUGGGCAACAUUCCGACGGGACCGUCCCCUCGGUAAUGGCGAAUGGGACCCA", "note": "[C33U G52C]", "self-cleavage": 0.596},
      {"variant": "GGCCGGCAUGGUCCCAGCCUCCUCGCUGGCGCUGGCUGGGUAACAUUCCGAGGGGACCGUCCCCUCGGUAAUGGCGAAUGGGACCCA", "note": "[C33U C41U]", "self-cleavage": 0.646},
      {"variant": "GGCCGGCAUGGUCCCAGCCUCCUCGCUGGCGCUGGCUGGGAAACAUUCCGAGGGGACCGUCCCCUCGGUAAUGGCGAAUGGGACCCA", "note": "[C33U C41A]", "self-cleavage": 0.7},
      {"variant": "GGCCGGCAUGGUCCCAGCCUCCUCGCUGGCGCUGGCUGGGCAACAGUCCGAGGGGACCGUCCCCUCGGUAAUGGCGAAUGGGACCCA", "note": "[C33U U46G]", "self-cleavage": 0.65},
      {"variant": "GGCCGGCAUGGUCCCAGCCUCCUCGCUGGCGCUGGCUGGGCAACAUUCCGAGGGGACCGUCCGCUCGGUAAUGGCGAAUGGGACCCA", "note": "[C33U C63G]", "self-cleavage": 0.698},
      {"variant": "GGCCGGCAUGGUCCCAGCCUCCUCGCUGGCGCUGGGUGGGCAACAUUCCGAGGGGACCGUCCCCUCGGUAAUGGCGAAUGGGACCCA", "note": "[C33U C36G]", "self-cleavage": 0.0665},
      {"variant": "GGCCGGCAUGGUCCCAGCCUCCUCGCUGGCGCUGGCUGGGCAACAUUCCGAGGGGACCGUCCCCUCGGUAAUGGCGAAUGGGACACA", "note": "[C33U C85A]", "self-cleavage": 0.831},
      {"variant": "GGCCGGCAUGGUCCCAGCCUCCUCGCUGGCGCUGGCUGGGCAACAUUCCGAGGGGACCGUCCCCUCGGUAAUGGCGAAUGGGACUCA", "note": "[C33U C85U]", "self-cleavage": 0.831},
      {"variant": "GGCCGGCAUGGUCCCAGCCUCCUCGCUGGCGCUGGCUGGGCAACAUUCCGAGGGGACCGUCCCCUCGGUAAUGGCGAAUGGCACCCA", "note": "[C33U G82C]", "self-cleavage": 0.245},
      {"variant": "GGCCGGCAUGGUCCCAGCCUCCUCGCUGGCGCUGGCUGGGCAACAUUCCGAGGGGACCGUUCCCUCGGUAAUGGCGAAUGGGACCCA", "note": "[C33U C61U]", "self-cleavage": 0.918},
      {"variant": "GGCCGGCAUGGUCCCAGCCUCCUCGCUGGCGCUGGCUGGGCAACAUUCCGAGGGGACCGUGCCCUCGGUAAUGGCGAAUGGGACCCA", "note": "[C33U C61G]", "self-cleavage": 0.831},
      {"variant": "GGCCGGCAUGGUCCCAGCCUCCUCGCUGGCGCUGGCUGGGCAUCAUUCCGAGGGGACCGUCCCCUCGGUAAUGGCGAAUGGGACCCA", "note": "[C33U A43U]", "self-cleavage": 0.356},
      {"variant": "GGCCGGCAUGGUCCCAGCCUCCUCGCUGGCGCUGGCUGGGCAACAUUCCGAGGGGACCGUCCCCUCGGUAAUGGAGAAUGGGACCCA", "note": "[C33U C75A]", "self-cleavage": 0.0923},
      {"variant": "GGCCGGCAUGGUCCCAGCCUCCUCGCUGGCGCUGGCUGGGCAACAUUCCGAGGGGACCGUCCCCUCGGUAUUGGCGAAUGGGACCCA", "note": "[C33U A71U]", "self-cleavage": 0.65},
      {"variant": "GGCCGGCAUGGUCCCAGCCUCCUCGCUGGCGCUGGCUGGGCAACAUUCCGAGGGGACCGUCCCCUCGGUACUGGCGAAUGGGACCCA", "note": "[C33U A71C]", "self-cleavage": 0.374},
      {"variant": "GGCCGGCAUGGUCCCAGCCUCCUCGCUGGCGCUGGCUGGGCAACAUUCCGAGGGGACCGUCCCCUCGGGAAUGGCGAAUGGGACCCA", "note": "[C33U U69G]", "self-cleavage": 0.807},
      {"variant": "GGCCGGCAUGGUCCCAGCCUCCUCGCUGGCGCUGGCUGGGCAACAUUCCGAGGGGACCGUCCCCUCGGCAAUGGCGAAUGGGACCCA", "note": "[C33U U69C]", "self-cleavage": 0.956},
      {"variant": "GGCCGGCAUGGUCCCAGCCUCCUCGCUGGCGCUGGCUGGGCAACAUUCCGAGGGGACCGUCCCCUCGGUAAUGGCGAAUCGGACCCA", "note": "[C33U G80C]", "self-cleavage": 0.143},
      {"variant": "GGCCGGCAUGGUCCCAGCCUCCUCGCUGGCGCUGGCUGGGCAACAUUCCGAGGGGACCGUCCCCUCGGUAAUGACGAAUGGGACCCA", "note": "[C33U G74A]", "self-cleavage": 0.277},
      {"variant": "GGCCGGCAUGGUCCCAGCCUCCUCGCUGGCGCUGGCUGGGCAAUAUUCCGAGGGGACCGUCCCCUCGGUAAUGGCGAAUGGGACCCA", "note": "[C33U C44U]", "self-cleavage": 0.543}
    ]}
  ]
}
